This experiment has as its target CIB1N-DBD (CIB1N (1-170) fused to the Gal4 DNA binding domain) (Arabidopsis thaliana) (UniProt Q8GY61). Put plainly: two-hybrid.

Here are results for one substance from PMC4766841.

Sequence of UniProt Q8GY61 (Q8GY61 1-170): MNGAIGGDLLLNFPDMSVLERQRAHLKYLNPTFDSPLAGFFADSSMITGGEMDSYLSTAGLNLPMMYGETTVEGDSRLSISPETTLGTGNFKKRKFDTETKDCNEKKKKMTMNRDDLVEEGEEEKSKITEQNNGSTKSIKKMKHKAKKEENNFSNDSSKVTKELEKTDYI

Consider “CRY2PHR-AD (CRY2PHR fused to the Gal4 activation domain) (from UniProt Q96524 1-498) (domain or fragment)”, for which the β-Gal Light was determined as 47.1.
